Measurements taken from article PMC8835667, “The KRAB Domain of ZNF10 Guides the Identification of Specific Amino Acids That Transform the Ancestral KRAB-A-Related Domain Present in Human PRDM9 into a Canonical Modern KRAB-A Domain” (International Journal of Molecular Sciences, 2022).

Target: tripartite motif containing 28 (TRIM28) (human (endogenous in HeLa), UniProt Q13263 1-835)
Experiment: cell-based or functional assay

tripartite motif containing 28 (TRIM28), sequence (Q13263 whole entry): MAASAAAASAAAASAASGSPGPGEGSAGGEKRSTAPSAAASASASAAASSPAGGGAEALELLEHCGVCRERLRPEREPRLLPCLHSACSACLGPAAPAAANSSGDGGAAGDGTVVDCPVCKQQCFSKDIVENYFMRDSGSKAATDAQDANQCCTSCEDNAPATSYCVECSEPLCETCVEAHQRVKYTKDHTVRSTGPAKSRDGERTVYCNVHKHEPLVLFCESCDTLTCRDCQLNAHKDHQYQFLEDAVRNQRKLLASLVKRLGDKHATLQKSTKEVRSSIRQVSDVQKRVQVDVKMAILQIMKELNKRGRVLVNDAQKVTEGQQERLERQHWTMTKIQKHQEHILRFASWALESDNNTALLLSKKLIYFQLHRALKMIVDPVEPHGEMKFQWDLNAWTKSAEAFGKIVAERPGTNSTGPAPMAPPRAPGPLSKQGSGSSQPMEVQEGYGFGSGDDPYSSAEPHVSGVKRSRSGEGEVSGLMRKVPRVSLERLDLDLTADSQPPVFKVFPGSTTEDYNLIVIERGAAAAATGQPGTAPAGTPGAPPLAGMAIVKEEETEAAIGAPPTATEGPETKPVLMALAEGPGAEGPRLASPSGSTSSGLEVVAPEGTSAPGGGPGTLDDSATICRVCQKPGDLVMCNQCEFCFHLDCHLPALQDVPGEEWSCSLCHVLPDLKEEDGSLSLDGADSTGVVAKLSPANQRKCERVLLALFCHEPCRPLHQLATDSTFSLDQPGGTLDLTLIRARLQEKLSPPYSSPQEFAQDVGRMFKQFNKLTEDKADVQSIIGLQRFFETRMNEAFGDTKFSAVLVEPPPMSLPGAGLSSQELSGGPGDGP

| Binder | transcriptional repression factor over Gal4-DBD alone, dual luciferase reporter assay in HeLa cells (KRAB domain as Gal4-DBD fusion) [fold] |
| --- | --- |
| GST-ZNF10-AB fusion protein (domain or fragment) not shown | ~19 |
| GST-PRDM9-A/24-97 (domain or fragment, human, UniProt Q9NQV7 24-97, looked up) VKDAFKDISIYFTKEEWAEMGDWEKTRYRNVKRNYNALITIGLRATRPAFMCHRRQAIKLQVDDTEDSDEEWTP | 1.3 |
